T1: human WISE (human, UniProt Q6X4U4 24-206)
T1 construct: Recombinant, made in E. coli or mammalian cells; biotinylated in the ELISAs, amine-coupled to CM5 in Biacore; also called huWise; huWISE
T1 sequence: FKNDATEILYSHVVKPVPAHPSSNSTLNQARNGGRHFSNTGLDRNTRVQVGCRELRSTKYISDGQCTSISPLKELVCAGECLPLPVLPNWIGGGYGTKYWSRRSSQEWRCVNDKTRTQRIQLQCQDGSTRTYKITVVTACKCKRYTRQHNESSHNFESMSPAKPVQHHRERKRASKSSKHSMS

T2: mouse WISE (mouse, UniProt Q9CQN4 24-206)
T2 construct: Recombinant purified protein; also called muWISE; mWISE
T2 sequence: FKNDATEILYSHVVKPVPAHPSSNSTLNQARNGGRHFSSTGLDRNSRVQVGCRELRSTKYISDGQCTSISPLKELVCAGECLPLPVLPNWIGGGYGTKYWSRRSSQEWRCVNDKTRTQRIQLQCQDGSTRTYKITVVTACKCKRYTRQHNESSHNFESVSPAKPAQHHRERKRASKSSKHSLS


Legend:
[1] = target: T1, human WISE; assay: KinExA solution equilibrium, rhuWise-coated azlactone beads
Experimental: (§1) Binding of muAbs with rhuWise and rmuWise were tested on KinExA. Azlactone beads (Pierce) was pre-coated with rhuWise/rmuWise at pH9.0 and blocked with ethanolamine, then further washed with sample buffer (0.1 mg/mL Heparin in BSA/P20/PBS solution). 10 pM and 100 pM of Ab-A, Ab-C and Ab-E were incubated with various concentrations (0.1 pM-3 nM) of rhuWise/rmuWise at room temperature for at least 10 hours before run through the rhuWise/rmuWise coated beads.
(§2) The amount of the bead-bound muAbs were quantified by fluorescent (Cy5) labeled goat anti-mouse IgG (H+L) antibody (Jackson Immuno Research). The binding signal is proportional to the concentration of free muAbs at binding equilibrium. Equilibrium dissociation constant (Kd) was obtained from nonlinear regression of the competition curves using a two-curve one-site homogeneous binding model (KinExA™ Pro software).

[2] = target: T2, mouse WISE; assay: KinExA solution equilibrium, rmuWise-coated beads
Experimental: as §1, §2

[3] = target: T3, T49 tryptic fragment of human WISE (human); assay: Biacore peptide competition, 3 nM antibody preincubated with 30 nM peptide
T3 construct: Multiply truncated human WISE from tryptic digestion, isolated by HPLC; the two pieces are held together by cystine-knot disulfide bonds (C1-C5, C2-C6, C3-C7); also called T49 peptide
Experimental: (§3) To identify which peptides compete with WISE for binding to the antibodies of the invention, rhuWise was immobilized on a CM5 surface with high density. 3 nM of mature antibodies Ab-A, Ab-C and Ab-E were pre-incubated with and without 30 nM peptides and huWise (as control), then injected over the huWise surfaces. As shown in FIGS. 9A and B both T49 and T56.1 peptides blocked the binding of the antibodies to huWISE.

[4] = target: T4, T56.1 tryptic fragment of human WISE (human); assay: as above
T4 construct: Multiply truncated human WISE from tryptic digestion, isolated by HPLC; the two pieces are held together by cystine-knot disulfide bonds; also called T56.1 peptide
Experimental: as §3

[5] = target: T1, human WISE; assay: ELISA, antibody coated, biotinylated human WISE titrated
[6] = target: T1, human WISE; assay: assay not specified (IgG2 from transient transfection)
[7] = target: T3, T49 tryptic fragment of human WISE; assay: Biacore peptide competition (FIG. 9B)
Experimental: as §3

[8] = target: T4, T56.1 tryptic fragment of human WISE; assay: Biacore peptide competition (FIG. 9B)
Experimental: as §3

Kd [1] [pM]	binding result [2]	binding result [3]	binding result [4]	binding result [5]	Binder	other results
~2	binds	binds	binds		Ab-A (antibody, V domains shown, Murine monoclonal antibody from hybridoma, tested in its mature form; The entries may still carry a signal peptide; also called Antibody A; antibody A) VH: QIHLVQSGPELKKPGETVKISCKASGFSFTTYGMSWVKQAPGKGLKWMGWINTYSGVPTYADDFKGRFAFSLETSASTAYLQINNLKNEDTATYFCVRGREYYYGSGIAFWGQGTLVTVSA VL: DVVMTQTPLSLPVSLGDQASISCRSSQSLEHSNGNTYLHWYLQKPGQSPKLLIYKVSNRFSGVPDRFSGSGSGTDFTLKISRVEAEDLGVYFCSQSTHVPLTFGAGTKVELKR	
				binds	Ab-B (antibody, V domains shown, Humanized Ab-A, human kappa / human IgG2) VH: QVQLVQSGAEVKKPGASVKVSCKASGYTFTTYGMSWVRQAPGQGLEWMGWINTYSGVPTYADDFKGRFVFSLDTSVSTAYLQINSLKAEDTAVYYCARGREYYYGSGIAFWGQGTLVTVSS VL: DVVMTQSPLSLPVTLGQPASISCRSSQSLEHSNGNTYLHWYLQKPGQSPQLLIYKVSNRFSGVPDRFSGSGSGTDFTLKISRVEAEDVGVYFCSQSTHVPLTFGGGTKVEIKR	
				binds	Ab-G (antibody, human IgG2, kappa, V domains shown, Humanized Ab-A, human kappa / human IgG2) VH: QVQLVQSGAEVKKPGASVKVSCKASGYTFTTYGMSWVKQAPGQGLEWMGWINTYSGVPTYADDFKGRFVFSLDTSVSTAYLQINSLKAEDTAVYFCVRGREYYYGSGIAFWGQGTLVTVSS VL: DVVMTQSPLSLPVTLGQPASISCRSSQSLEHSNGNTYLHWYLQKPGQSPQLLIYKVSNRFSGVPDRFSGSGSGTDFTLKISRVEAEDVGVYFCSQSTHVPLTFGGGTKVEIKR	
				binds	Ab-D (antibody, V domains shown, Humanized Ab-C, human kappa / human IgG2) VH: QVQLVQSGAEVKKPGSSVKVSCKASGGTFSSTYISWVRQAPGQGLEWMGWIYAGTGGTRYNRKFTGRVTITADESTSTAYMELSSLRSEDTAVYYCAREGVDGWFTYWGQGTLVTVSS VL: DIQMTQSPSSLSASVGDRVTISCRASESVDNYGSSFMNWYQQKPGKAPKLLIYAASNQGSGVPSRFSGSGSGTDFTLTISSLQPEDFATYYCQQSKEVPYTFGQGTKLEIKR	
				binds	Ab-O (antibody, human IgG2, V domains shown, Human IgG2 heavy chain) VH: QVQLVQSGAEVKKPGSSVKVSCKASGGTFSSTYISWVRQAPGQGLEWMGWIYAGTGGTRYNRKFTGRVTITADESTSTAYMELSSLRSEDTAVYYCAREGVDGWFTYWGQGTLVTVSS VL: not shown	
					light chain of SEQ ID NO: 120 paired with the heavy chain of SEQ ID NO: 24 (antibody, human IgG2, kappa, V domains shown) VH: QVQLVQSGAEVKKPGSSVKVSCKASGGTFSSTYISWVRQAPGQGLEWMGWIYAGTGGTRYNRKFTGRVTITADESTSTAYMELSSLRSEDTAVYYCAREGVDGWFTYWGQGTLVTVSS VL: DIQMTQSPATLSLSPGERATLSCRASRSVSSNLAWYQQKPGRAPRLLMFGASTRATGVPARFSGSGSGTEFTLTISSLQSEDVATYYCQHDNELPLTFGGGTKVELKR	binding result [6]: binds
~4	binds	binds	binds		Ab-C (antibody, V domains shown, Murine monoclonal antibody from hybridoma, tested in its mature form; also called Antibody C; antibody C) VH: QGQMQQSGAELVKPGASVQLSCKTSGFTFSSTYISWLKQKPGQSLEWIAWIYAGTGGTRYNRKFTGKAQLTVDTSSSTAYMQFSSLTTEDSAIYYCAREGVDGWFTYWGQGTLVTVSA VL: not shown	
~18	binds	binds	binds		Ab-E (antibody, mouse IgG1, kappa, V domains shown, Murine monoclonal antibody from hybridoma, tested in its mature form; polypeptide numbers 26 and 28 and the light/heavy assignment are inferred; also called Antibody E; antibody E) VH: QGQMQQSGAELVKPGASVKLSCKTSGFTFNSHYISWLKQKPGQTLEWIAWIYAGTGGTRYNQKFTGKAQLTVDTSSSTAYMQFSSLTTEDSAIYYCAREGVDGWFTYWGQGTLVTVSA VL: not shown	
					Ab-P (antibody, V domains shown, also called Antibody P) VH: EVRLVESGGGLVQPGRSLKLSCAASGFPFSNYGMAWVRQAPTRGLEWVASITYDGSITFYRDSVKGRFTISRDNAKSTLYLQMDSLRSEDTATYYCTSSDTTDYYHGGFWFAYWGQGTLVTVSS VL: DIVLTQSPALAVSLGQRATLSCRASQSVSISGHNLMHWYQQKPGQQPKLLIYRASNLPSGIPARFSGSGSGTGFTLTINPVQADDIATYYCQQSRESPWTFGGGTTLELKR	binding result [7]: binds; binding result [8]: binds
